Assay results from US20220177587A1, “METHODS AND USES OF VARIANT CD80 FUSION PROTEINS AND RELATED CONSTRUCTS” (Alpine Immune Sciences, Inc., priority 2018, published 2022).
Substitutions are numbered along the chain they refer to. In names and notes the source's numbering stands. Values belong to the binder of their own block, whether it stands above or below them.

Columns and labels:
[1] = target: CD28 (human) (UniProt P10747)
[2] = target: human PD-L1 (human) (UniProt Q9NZQ7)
Target sequence in this assay (Q9NZQ7 19-290): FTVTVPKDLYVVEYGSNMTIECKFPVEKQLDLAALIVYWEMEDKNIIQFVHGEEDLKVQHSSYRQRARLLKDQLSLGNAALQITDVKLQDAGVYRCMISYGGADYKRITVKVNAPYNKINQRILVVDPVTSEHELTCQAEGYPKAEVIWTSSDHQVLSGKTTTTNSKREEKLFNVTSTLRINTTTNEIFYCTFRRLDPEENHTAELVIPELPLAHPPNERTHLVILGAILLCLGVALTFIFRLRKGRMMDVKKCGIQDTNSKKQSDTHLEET

[3] = target: CD28 (human) (UniProt P10747); assay: flow cytometry, Jurkat cells (CD28)
[4] = target: human CTLA-4 (human) (UniProt P16410); assay: flow cytometry, CHO cells stably expressing CTLA4
[5] = target: human PD-L1 (human) (UniProt Q9NZQ7); assay: flow cytometry, CHO cells stably expressing PD-L1
Target sequence in this assay (Q9NZQ7 19-290): as above

[6] = target: human CTLA-4 (human) (UniProt P16410); assay: flow cytometry, CHO/CTLA4 cells; MFI over CD80 WT IgV-Fc
[7] = target: human PD-L1 (human) (UniProt Q9NZQ7); assay: flow cytometry, CHO/PD-L1 cells; MFI over CD80 WT IgV-Fc
Target sequence in this assay (Q9NZQ7 19-290): as above

[8] = target: CD28 (human) (UniProt P10747); assay: flow cytometry, Jurkat cells (CD28); MFI over CD80 WT IgV-Fc
[9] = target: CD28 (human) (UniProt P10747); remark: listed apart in the source
[10] = target: human PD-L1 (human) (UniProt Q9NZQ7); remark: listed apart in the source
Target sequence in this assay (Q9NZQ7 19-290 limits assumed): as the sequence (Q9NZQ7 19-290) above

[11] = target: human PD-L1 (human) (UniProt Q9NZQ7); assay: flow cytometry, MFI on PD-L1 cells over MFI on CD28 cells
Target sequence in this assay (Q9NZQ7 19-290): as above

[12] = target: CD28 (human) (UniProt P10747); remark: listed apart in the source
[13] = target: human PD-L1 (human) (UniProt Q9NZQ7); remark: listed apart in the source
Target sequence in this assay (Q9NZQ7 19-290): as above

[14] = target: CD28 (human) (UniProt P10747); remark: listed apart in the source
[15] = target: human PD-L1 (human) (UniProt Q9NZQ7); remark: listed apart in the source
Target sequence in this assay (Q9NZQ7 19-290): as above

human CTLA-4 (human), sequence (P16410 36-223): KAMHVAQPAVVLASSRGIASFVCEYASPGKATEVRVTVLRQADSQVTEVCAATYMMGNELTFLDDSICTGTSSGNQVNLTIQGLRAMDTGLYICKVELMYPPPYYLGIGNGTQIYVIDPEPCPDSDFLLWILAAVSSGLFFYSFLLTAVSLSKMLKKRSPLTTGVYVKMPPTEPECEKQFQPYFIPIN

B1: CD80 E35D/D46V/M47L/V68M/L85Q/E88D IgV-Fc, GS(G4S)5 linker (Fc fusion)
chain: VIHVTKEVKEVATLSCGHNVSVEELAQTRIYWQKDKKMVLTMMSGVLNIWPEYKNRTIFDITNNLSIMILALRPSDEGTYECVVQKYDKDAFKREHLAEVTLSVKADGSGGGGSGGGGSGGGGSGGGGSGGGGS
- IL2-luciferase reporter, fold increase in RLU over WT CD80-IgV-Fc at 5.0 nM [1]: 5.26 fold
- IL2-luciferase reporter, fold increase in RLU over WT CD80-IgV-Fc at 5.0 nM [2]: 5.26 fold
- MFI at 33.3 nM [3]: 143 MFI
- MFI at 33.3 nM [4]: 26600 MFI
- MFI at 33.3 nM [5]: 22400 MFI
- Fold change to WT CD80 [6]: 22.2 fold
- Fold change to WT CD80 [7]: 481 fold
- Fold change to WT CD80 [8]: 2.6 fold

B4: CD80 E35D/D46E/M47I IgV-Fc (Fc fusion)
chain: VIHVTKEVKEVATLSCGHNVSVEELAQTRIYWQKDKKMVLTMMSGEINIWPEYKNRTIFDITNNLSIVILALRPSDEGTYECVVLKYEKDAFKREHLAEVTLSVKAD
- IL2-luciferase reporter (RLU), fold increase over WT CD80-IgV-Fc at 5.0 nM [14]: 4.8 fold
- IL2-luciferase reporter (RLU), fold increase over WT CD80-IgV-Fc at 5.0 nM [15]: 4.8 fold

B5: CD80 E35D/L97R IgV-Fc (Fc fusion)
chain: B4 chain with E46D, I47M, L97R
- IL2-luciferase reporter (RLU), fold increase over WT CD80-IgV-Fc at 5.0 nM [14]: 2.3 fold
- IL2-luciferase reporter (RLU), fold increase over WT CD80-IgV-Fc at 5.0 nM [15]: 2.3 fold

B8: CD80 E35D/M47V IgV-Fc (Fc fusion)
chain: B4 chain with E46D, I47V
- IL2-luciferase reporter (RLU), fold increase over WT CD80-IgV-Fc at 5.0 nM [14]: 3.4 fold
- IL2-luciferase reporter (RLU), fold increase over WT CD80-IgV-Fc at 5.0 nM [15]: 3.4 fold

B10: CD80 E35D/D46V/M47L/V68M/L85Q/E88D IgV-Fc, (EAAAK)3 linker (Fc fusion)
chain: VIHVTKEVKEVATLSCGHNVSVEELAQTRIYWQKDKKMVLTMMSGVLNIWPEYKNRTIFDITNNLSIMILALRPSDEGTYECVVQKYDKDAFKREHLAEVTLSVKADEAAAKEAAAKEAAAK
- IL2-luciferase reporter, fold increase in RLU over WT CD80-IgV-Fc at 5.0 nM [1]: 5.25 fold
- IL2-luciferase reporter, fold increase in RLU over WT CD80-IgV-Fc at 5.0 nM [2]: 5.25 fold
- MFI at 33.3 nM [3]: 197 MFI
- MFI at 33.3 nM [4]: 32000 MFI
- MFI at 33.3 nM [5]: 25500 MFI
- Fold change to WT CD80 [6]: 26.8 fold
- Fold change to WT CD80 [7]: 546 fold
- Fold change to WT CD80 [8]: 3.5 fold

B11: CD80 E35D/D46V/M47L/V68M/L85Q/E88D IgV-Fc, EAAAK linker (Fc fusion)
chain: VIHVTKEVKEVATLSCGHNVSVEELAQTRIYWQKDKKMVLTMMSGVLNIWPEYKNRTIFDITNNLSIMILALRPSDEGTYECVVQKYDKDAFKREHLAEVTLSVKADEAAAK
- IL2-luciferase reporter, fold increase in RLU over WT CD80-IgV-Fc at 5.0 nM [1]: 3.75 fold
- IL2-luciferase reporter, fold increase in RLU over WT CD80-IgV-Fc at 5.0 nM [2]: 3.75 fold
- MFI at 33.3 nM [3]: 563 MFI
- MFI at 33.3 nM [4]: 29000 MFI
- MFI at 33.3 nM [5]: 24800 MFI
- Fold change to WT CD80 [6]: 24.2 fold
- Fold change to WT CD80 [7]: 533 fold
- Fold change to WT CD80 [8]: 10.1 fold

Second part, the binder after the results:

- IL-2 luciferase reporter, fold increase over WT CD80-IgV-Fc at 5.0 nM [9]: 3.1 fold
- IL-2 luciferase reporter, fold increase over WT CD80-IgV-Fc at 5.0 nM [10]: 3.1 fold
- Fold change to WT CD80 [3]: 7.4 fold
- MFI at 33.3 nM [3]: 324 MFI
- Fold change to WT CD80 [4]: 17.7 fold
- MFI at 33.3 nM [4]: 24000 MFI
- Fold change to WT CD80 [5]: 228 fold
- MFI at 33.3 nM [5]: 9950 MFI
- Ratio of PDL1:CD28 [11]: 30.7
B2: variant CD80 IgV-Fc H18Y/A26E/E35D/M47L (Fc fusion)
chain: B4 chain with H18Y, A26E, E46D, I47L

- RLU at 5.0 nM: Fold Increase over WT CD80-IgV-Fc [12]: 2.5 fold
- RLU at 5.0 nM: Fold Increase over WT CD80-IgV-Fc [13]: 2.5 fold
B3: CD80 IgV-Fc T13R/Q33R/E35D/M38I/M47L/V68M/E95V/L97Q (Fc fusion)
chain: B4 chain with T13R, Q33R, M38I, E46D, I47L, V68M, E95V, L97Q

- RLU at 5.0 nM: Fold Increase over WT CD80-IgV-Fc [12]: 3.6 fold
- RLU at 5.0 nM: Fold Increase over WT CD80-IgV-Fc [13]: 3.6 fold
B6: CD80 IgV-Fc E35D/M47V/N48K/V68M/A71G/L85M (Fc fusion)
chain: B4 chain with E46D, I47V, N48K, V68M, A71G, L85M

- RLU at 5.0 nM: Fold Increase over WT CD80-IgV-Fc [12]: 3.9 fold
- RLU at 5.0 nM: Fold Increase over WT CD80-IgV-Fc [13]: 3.9 fold
B7: CD80 IgV-Fc E35D/M47L/Y53F/V68M/A71G/K93R/E95V (Fc fusion)
chain: B4 chain with E46D, I47L, Y53F, V68M, A71G, K93R, E95V

- IL2-luciferase reporter (RLU), fold increase over WT CD80-IgV-Fc at 5.0 nM [14]: 4.7 fold
- IL2-luciferase reporter (RLU), fold increase over WT CD80-IgV-Fc at 5.0 nM [15]: 4.7 fold
B9: CD80 H18Y/E35D/M47L/A71G/A91S IgV-Fc (Fc fusion)
chain: B4 chain with H18Y, E46D, I47L, A71G, A91S
